Assay: yeast display, Sf9 membrane polyspecificity reagent, FACS + sequencing; frameworks hold sequencing errors
In short: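 Genes from sorted yeast were amplified by colony PCR, read by MiSeq 2 × 250 sequencing and filtered on CDR length. These cells carried a synthetic nanobody library in Saccharomyces cerevisiae BJ5465 and were sorted by FACS into low and high (top ~1%) gates on anti-HA and streptavidin fluorescence. Polyreactivity is labelled according to the gate of origin.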

Sequence | polyreactivity (PSR sort gate)
QVQLVESVGGLVQAGGSLRLSCAGSGSIFFRNSMLWYRQAPGKERELVAAIRSSVSSTYYADSVKGRFTISRDNAKNTVYLQLNSLKPEDTAVYYCAAAARSYVGYYYWGQGTQVTVSS | low polyreactivity
QVQLVESVGGLVQAGGSLRLSCAGSGSTFGRYTMGSSRQAPVKEREFVAAIRWSGGNTYYADTVKGRFTISRGKAKNTVYLQMNSLKTEDTAVFYCNRVYSTIGDYWGQGTQVTVSS | low polyreactivity
QVQLVESVGGLVQAGGSLRLSCASSGRIFRGNAMGWYRQAPGKERELVAAINSRGTHTYYADSVKGRFTISRDNAKNTVYLQMNSLKPEDTAVYYCAATWTQPQPGYYAYYYWGQGTQVSVSS | high polyreactivity
QVQLVESVGGLVQAGGSLRLSCASSGSIFEGSAMGRYRQAPGKEMELVASISSGGSTNYADSVKGRFTISRDNAKNTVYLQMNSLKPEDTAVYYCAAEWVWYKWEFEYWGQGTKVTVSS | high polyreactivity
QVQLVESVGGLVQAGGSLRLSCASSGSTFGFNAIGWYRKAPVKERELVAANTFSGGTTYYADSVKGRFTISRDNAKNTVYLQMNSLKPEDTAGYYCNAEWWYQYTGPFSPWGEDYWGQGTQVTVSS | low polyreactivity
QVQLVESVGGLVQAGGSLRLSCDASGRIFRRYAMGWYRQAPGKERELVAAISSSGDSTYYADSVKGRFTISRDNAKNTVYLQMNSLKPEDTAVYYCAAVTRRYVLSTFYYWGQGTQVTVSS | high polyreactivity
QVQLVESVGGLVQAGGSLRLSCDASGRTFRVYAMGWYRQAPGKERELVAAITSGDSTYYADSVKGRFTISRDNAKNTFYLQMNSLKPEDTAVYYCAVNTSRYWSGYWGQGTQVTVSS | high polyreactivity
QVQLVESVGGLVQAGGSLRLSCDASGSTFPKYAMGRSRQAPAKEIELVAGISWRGGSTYYADSVKGRFTISRDNAKNTVYLQMNSLKPEDTAVYYCNKYLYYSFQDDYWGQGTQVTVSS | high polyreactivity
QVQLVESVGGLVQAGGSLRLSCPASGFTFKYYAMGWYRQAPGKEREFVAAISRSGGSTTYADSVKGRFTISRDNAKNTVYLQMNSLKPEDTAVYYCAVAYYTAYTPRDGEYWGQGTQVTVSS | high polyreactivity
QVQLVESVGGLVQAGGSLRLSCPASGSIFYANAMGGYRQAPGKERELVATISTGGGRTYYADSVKGRFTISRDKAKNTVYLQMNSLKAEDTAVYYCNATRNYARVRYYYWGKGTQVTVSS | high polyreactivity
QVQLVESVGGLVQAGGSLRLSSAASGFTFVPYAMGWYRQAPGKERETNADSVKGRFTISRDNAKNTVYLQMNSLKPEDTAVYYCAADLGRGIYDYWGQGTQVTVSS | low polyreactivity
QVQLVESVGGLVQAGRSLRLSCAASGNTFLRYAMGWYRQAPGKERELVAAISRSGGSTYYADSVKGRFTISRDNAKNTVYLQMNSLKPEDTAVYYCAARRSSQPDKGYYYWGQGTQVTVSS | high polyreactivity
QVQLVESVGGLVQEGGSLRLSCAASGSNFQWYAMGWYRQAPGKERELVAAIRYSGDSTYYADSVKGRFTISRDNAKNTDYLQMNSLKPEDTAVYYCAAEATTRWLLYNYWGQGTQVTVSS | high polyreactivity
QVQLVESVGGLVQPGGSLRLSCAASGRTFGRYAKGWYRQAPGKERELVAGISRSGDSTHYADSLKGRFTISRDNAKYCVYLQMKSLKPEDTEVYYCNKETPTIGARKYEYWGQGTQVNVSS | low polyreactivity
QVQLVESVGGLVQSGGSLRLSCAASGFTFYRYGIGWYREAPGKERELVAAITSGGITYYADSVKGRFTISRDNAKNTVYLQLNSLKPEDTAVYYCNAVYPVAAIVRYDYWGQGTQVTVSS | high polyreactivity
QVQLVESVGGVVQAGGSLRLSCAASGSIFRWNAMGWYRQARGKEWELVAVNTWRGGRTYYADSVKGRFTFSRDNAKKTVYLQMNSLNPEYTSFSYCAKGRLVTTLFGHYATCEYDSWGHGTQVTVSS | high polyreactivity
QVQLVESVGVLVQAGARLRLSCAASGSIFRTNTMGSYRQAPVKERELVAAITAIGDSTYYGDSVKGRFTISRDNAKNTVYLQMNSLKPEDTAVYYCAAEKVSWGYHFYSSSDYWGQATQVTVSS | low polyreactivity
QVQLVESVGVLVQAGGSLRLSCAASVSIFDYNAMGWYRQAPGKERELVADITISDDSTYYADSVKGRFTISRDNAKNTVYLQMNSLKPEDTAVYYCAADIKYYWYYYYWAYAYDYWGQGTQVTVSS | high polyreactivity
QVQLVESVRGLVQAGGSLRLSCAASGFIFRSYAMGWYRQAPGKEREFVAAISRSGGRTYYADSVKGRFTISRDNAKNTVYLQMNCLKPEDTAVYYCAATVGGSYTFDYWGQGTQVTVSS | high polyreactivity
QVQLVESVVGLVQAGGILRLSCSASGRTFVHYTMGWYRQAPGKETELVAAISGTGTSTYYADSVKGRFTISRDNAKNTVYLQMNSLKPEDTAVYYCARDPYFGFHMGYPRRDYWGQGTHVTVSS | low polyreactivity
QVQLVESVVGLVQAGGSLRLRCAASGIIFSKYAMGWYIQEPGKERELVARISWRGGDTYYADSVKGRFTISRDNAKNTVYLKMNSMKQEDTSVYYFNARIWGRYFSYTRFDYWGQCTQVTVSS | high polyreactivity
QVQLVESVVGLVQAGGSLRLSCAASGITFNRNAMGWYIEAPGKERELVAAISSGGSTNYADSVKGRFTISRDNAKNTVYLQMNSLKPEDTAVYYCARAQYWYGKGYYYWGQGTQVTVSS | high polyreactivity

Sequence | polyreactivity (PSR sort gate)
QVQLVESVVGLVQAGGSLRLSCAASGRIFIIYAMGWYIQAPGKEREFVAAITSSGGSTYYGDSVKGRFTISRDNAKNTVYLQMNSLKPEDSAVYYCAARVTKLRTSSLRGYWGQGTQVTVSS | high polyreactivity
QVQLVESVVGLVQAGGSLRLSCAASGRTFYRNGMGWYRQAPGKERELVAAISSRGGSTYYADSVKGRFTISRDNAKNTVYLQMNSLKPEDTAVYYCAAPRASGYYWGQGTQVTVSS | high polyreactivity
QVQLVESVVGLVQAGGSLRLSCAATGSIFRWYAMGWYRQAPGKERELVAAITWSASRTYYADSVKGRFTISRDNGKNTVYLQMNSLKPEDTAVYYCAADHDCPYAGYDSWGQGTQVTVSS | low polyreactivity
QVQLVESVVGLVQAGGSLRLSCDASGRIFRYYAMGWYRQAPGKERELVARITSSGSTYYADSVKGRFTISRDNAKNTVYLQMNSLKPDDTAVYYCAADWYWGGIVDSWGQGTQVTVSS | high polyreactivity
QVQLVESVVGLVQAGGSLRLSSAASGRIFNQYGMGWYRQSPGKESELVAAIRSGDSTNYADSVKGRFTISRDNAKNTVYLQMNSLKPEDTAVYYCARDLPGDYAGFDYWGQGTQVTVSS | low polyreactivity
QVQLVESWGGLDQAGGSLRLSCAASGSTFYAYAMGWYRPAPGKERELVAAISSDGTNYADSVKGRFTISRDNAKNTVYLQMNSLKPEDTAVYYCAADLLLYSSQDNDFWGQGTQVTVSS | low polyreactivity
QVQLVESWGGLFQAGGTLRLSCAASGRTFIGYDMEWYRQAPGKERELVATISWNGADTYYADSVKGRYTISRDNAKNTVYLKMNSLKPEDTEVYYCAAERENGDHYRYYYWGQGTQVTVSS | low polyreactivity
QVQLVESWGGLVQAGGSLRLSCAASGFIFSRYAMGWYRQAPGKERELVAAISSRGGSTYYADSVKGRFTISRDNAKNTVYLQMNSLKPEDTAVYYCAKSSPTPHYYWGQGTQVTVSS | high polyreactivity
QVQLVESWGGLVQAGGSLRLSCAASGFTFLNYAMGWYRQAPGKERELVAAISFSTGRTYYADSVKGRFTISRDNAKNTDYLQMNSLKPEDTAVYYGAAGYWPGYSLTYRGGYWGQGTQVTVSS | high polyreactivity
QVQLVESWGGLVQAGGSLRLSCAASGFTLTPYAMGWYRQAPGKERELVAASRWSGGSTYYADSVKGRFTISRDNAKNTVYLQMNSLKPEDTAVYYCAARYAYRPVNGYKYWGQGTQVTVSS | high polyreactivity
QVQLVESWGGLVQAGGSLRLSCAASGGTFGNNDMGWYRQAPGKERELVAAIRSAGTTYYADSVKGRFTISRDNAKNTVYLQMNSLKPEDTAVYYCNADTTGYWSYGFQYYGEDYWGQGTQVTVSS | low polyreactivity
QVQLVESWGGLVQAGGSLRLSCAASGINFWVYAMGWYRQAPGQERELVAAISRRGGSTSYADSVKGRFTISRDNAKNTVYLQMKSLKPEDTAVYFCAATTYTHPYGYWGQGTQVTVSS | high polyreactivity
QVQLVESWGGLVQAGGSLRLSCAASGITFFFYAMGLYRLAPGKERELVASITWEDGSTYYADSVKGRFTISRDNANNTVYLQKNSLKPEDTAVYYCAADFEAGGYSLDYWGQGTQVTVSS | low polyreactivity
QVQLVESWGGLVQAGGSLRLSCAASGITFFTYAMGWYRQAPGKERELVAGISKTGGRSYYADSVKGRFTISRDNSKNTVYLQMNSLKPDDTAVYFCAAYFRSDYGYWGQGNQVTVSS | high polyreactivity
QVQLVESWGGLVQAGGSLRLSCAASGITFLRNTMGWYRQAPGKERELVAAISRGGSTYYADSVKGRFTISRDNAKNTVFLQMKSLKPEDTAVYYCNAPSYVQATDYDYWGQGTQVTVSS | high polyreactivity
QVQLVESWGGLVQAGGSLRLSCAASGITFPINTMGWYRQAPGKERELVAGIDWTGGSTYYADSVKGRFTISRDNAKNTVYLQMNSLKPEDTAVYYCAKRSYTGYEYWGQGTQVTVSS | low polyreactivity
QVQLVESWGGLVQAGGSLRLSCAASGNTIIRYAMGWYSQAPGKERELVAAISRSGGRTYYADSVKGRFTISRDNAKNTVYLQMNSLKPEDTAVYYCAAKIYIPRGYDYWGQGTQVTVSS | high polyreactivity
QVQLVESWGGLVQAGGSLRLSCAASGRIFGANARGWYRQAPGKERELVATITYGGTSTYYADSVKGRFTISRDNAKNSVYLQLNSLKPEYTADYYCAAASTYPLPYDFWGQGTQVTVSS | low polyreactivity
QVQLVESWGGLVQAGGSLRLSCAASGRIFYKYAMGWYRQAPGKERELVAAISYSGGSTYYADSVKGRFTISRDNAKITVYLQMKSLKQEDTAVDDCNAKPPYGVRSWGDYWGQGTKVTVSS | low polyreactivity
QVQLVESWGGLVQAGGSLRLSCAASGRTIEQYAMGWYRQAPGKERELVAAISGSGGSTFYADSVKGRFTISRDNAKNTVYLQMNSLKPEDTAVYYCNAPGDGYLYDHTYDYWGQGTQVTVSS | low polyreactivity
QVQLVESWGGLVQAGGSLRLSCAASGSIFDFNGMGCYRQAPGKERELVAAISGGGGSTYYADSVKGRFTISRDNAKNTVYLQMNSLKPEDTAVYYCAAAYSTYRFIYEYWGQATQVTVSS | high polyreactivity

From the nanobody polyreactivity screen of Harvey et al. (2022)
